Where no end group is shown, it is not given here.
Assays:
[1] = test system: inflammation; settings: ref [14]; cited from earlier work
Excerpt: (§1) In fact, platelets […] ...

[2] = target: T1, elastase (Homo sapiens, UniProt P08246); settings: pathologic conditions associated with neutrophil dysfunction; ref [22]; cited from earlier work
T1 construct: purchased Elastin Products Company, Inc. (Owensville, MO, USA)
T1 sequence (P08246 30-267): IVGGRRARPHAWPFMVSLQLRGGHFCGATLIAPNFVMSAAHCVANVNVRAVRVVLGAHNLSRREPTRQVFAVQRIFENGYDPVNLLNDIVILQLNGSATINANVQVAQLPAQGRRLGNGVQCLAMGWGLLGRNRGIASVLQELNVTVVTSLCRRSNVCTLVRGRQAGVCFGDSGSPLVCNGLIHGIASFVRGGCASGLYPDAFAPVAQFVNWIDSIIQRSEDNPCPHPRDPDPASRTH
Excerpt: Neutrophils also release granule contents containing enzymes such as elastase, proteinase-3, and cathepsin G. Elastase, a particularly inflammatory enzyme, interferes with thrombomodulin function, and cleaves TF pathway inhibitor (TFPI), the physiological inhibitor of the extrinsic pathway. […] Elastase also induces proteinase-activated receptor activation, contributes to cytokine production and processing, inactivates metalloprotease inhibitors, deg ...

[3] = test system: neutrophils; assay: Neutrophil-induced coagulation; format: cell-based, human; settings: DNAse (Dornase alfa) 4 µg/ml, 1 h, then PMA 50 nM, 3 h
Protocol: A) Platelet aggregation. Washed human platelets were stimulated with elastase only (500 nM, left panel), or cathepsin G only (110 nM, middle tracing), or elastase followed by cathepsin G (right tracing). […] Aggregation response was monitored by turbidimetry using a Lumi-Aggregometer. D) TFPI cleavage. […] After 2 h, reactions were stopped by addition of LDS loading buffer (under reducing conditions, 10 mM DTT), boiled for 5 min, and loaded in 4–12% Nu-PAGE gel. Gels were Coomassie Blue-stained. E) Neutrophil-induced coagulation. […] Fifty µl of this suspension was added to 50 µl of plasma, and reactions were started by addition of CaCl2 (12.5 mM, final concentration)(*, p<0.05).
(§2) Whole blood (5 mL collected in 0.5 mL of 3.2% sodium citrate) from healthy donors was diluted in an equal volume of PBS, layered over 5 mL of HISTOPAQUE solution (10771, Sigma Aldrich), and centrifuged for 40 min, at 400×g, at room temperature. The lower interphase having granulocytes was collected and transferred to a 15-ml Falcon tube and resuspended in 10 ml ammonium chloride lysis buffer (1.7 M NH4Cl, […], 1 mM EDTA) to lyse red blood cells. Lysis was carried out twice followed by centrifugation for 10 min at 400×g. Neutrophils were washed with PBS and resuspended at 1×10^6 cells/mL in high glucose DMEM (GIBCO). Neutrophils were kept on ice. […]

[4] = test system: baboons; settings: NETs-related thrombosis, DNase treatment; ref [19]; cited from earlier work
Excerpt: as §1

[5] = test system: neutrophils; assay: NETs formation; format: cell-based, human; settings: DNAse (Dornase alfa) 4 µg/ml; not shown
Protocol: Left panel, non-activated neutrophil (no PMA). Formation of NETs was visualized under confocal microscopy, using antibody against citrullinated histone. Representative experiment is shown (4 different donors). B) Quantification. Performed as described in Methods.
as §2, with “400×g.” for “400×g. Neutrophils were washed with PBS and resuspended at 1×10^6 cells/mL in high glucose DMEM (GIBCO). Neutrophils were kept on ice.”
Cells were fixed with 500 µl of 4% paraformaldehyde (final concentrations) for 10 min, washed 3 times with PBS and incubated for 10 min with blocking solution (PBS, 10%FBS, 5 mg/ml BSA). […] NETs were quantified according to Farley et al. Briefly, NETs were identified on digitalized images as Hoechst-positive fibrils emanating from cells with an overall length at least twice as long as the cell diameter and were counted for at least two fields of view per variable. Results were expressed as the percentage of NETs/total number of granulocytes.

Question: With “Elafin: potent elastase inhibitor purified from bronchial secretions (AQEPVKGPVSTKPGSCPIILIRCAMLNPPNRCLKDTDCPGIKKCCEGSCGMACFVPQ; ends and bridges not checked; cysteine pairing not given here; UniProt P19957 61-117, looked up)” as the molecule, how does the “inflammation in several in vivo models” value [1] read?
Answer: Its value is “blocks inflammation”.

Question: What about the clinical trial results [2] of the same molecule?
Answer: Its clinical trial results is “mixed results”.

B1: DNAse: DNAse (Dornase alfa, Genentech Inc.) (protein, UniProt P24855 23-282, looked up)
Deoxyribonuclease-1: LKIAAFNIQTFGETKMSNATLVSYIVQILSRYDIALVQEVRDSHLTAVGKLLDNLNQDAPDTYHYVVSEPLGRNSYKERYLFVYRPDQVSAVDSYYYDDGCEPCGNDTFNREPAIVRFFSRFTEVREFAIVPLHAAPGDAVAEIDALYDVYLDVQEKWGLEDVMLMGDFNAGCSYVRPSQWSSIRLWTSPTFQWLIPDSADTTATPTHCAYDRIVVAGMLLRGAVVPDSALPFNFQAAYGLSDQLAQAISDHYPVEVMLK
Question: Which “pro-coagulant activity of PMA-activated neutrophils” value [3] does the source give for B1 here?
Answer: Its value is “reversed”.

Question: And the thrombosis in baboons [4]?
Answer: The thrombosis in baboons was “prevented”.

Question: What about the NETs-associated fluorescence signal [5] of the same molecule?
Answer: The NETs-associated fluorescence signal was “completely abrogated”.

Source: PMC4161438 (PLoS Pathogens, 2014)
